The values that follow come from IntAct's records for PubMed 17003112.

Sequences and labels used below:
B1: Nuclear factor NF-kappa-B p105 subunit (Homo sapiens), P19838 (parent)
chain: MAEDDPYLGRPEQMFHLDPSLTHTIFNPEVFQPQMALPTDGPYLQILEQPKQRGFRFRYVCEGPSHGGLPGASSEKNKKSYPQVKICNYVGPAKVIVQLVTNGKNIHLHAHSLVGKHCEDGICTVTAGPKDMVVGFANLGILHVTKKKVFETLEARMTEACIRGYNPGLLVHPDLAYLQAEGGGDRQLGDREKELIRQAALQQTKEMDLSVVRLMFTAFLPDSTGSFTRRLEPVVSDAIYDSKAPNASNLKIVRMDRTAGCVTGGEEIYLLCDKVQKDDIQIRFYEEEENGGVWEGFGDFSPTDVHRQFAIVFKTPKYKDINITKPASVFVQLRRKSDLETSEPKPFLYYPEIKDKEEVQRKRQKLMPNFSDSFGGGSGAGAGGGGMFGSGGGGGGTGSTGPGYSFPHYGFPTYGGITFHPGTTKSNAGMKHGTMDTESKKDPEGCDKSDDKNTVNLFGKVIETTEQDQEPSEATVGNGEVTLTYATGTKEESAGVQDNLFLEKAMQLAKRHANALFDYAVTGDVKMLLAVQRHLTAVQDENGDSVLHLAIIHLHSQLVRDLLEVTSGLISDDIINMRNDLYQTPLHLAVITKQEDVVEDLLRAGADLSLLDRLGNSVLHLAAKEGHDKVLSILLKHKKAALLLDHPNGDGLNAIHLAMMSNSLPCLLLLVAAGADVNAQEQKSGRTALHLAVEHDNISLAGCLLLEGDAHVDSTTYDGTTPLHIAAGRGSTRLAALLKAAGADPLVENFEPLYDLDDSWENAGEDEGVVPGTTPLDMATSWQVFDILNGKPYEPEFTSDDLLAQGDMKQLAEDVKLQLYKLLEIPDPDKNWATLAQKLGLGILNNAFRLSPAPSKTLMDNYEVSGGTVRELVEALRQMGYTEAIEVIQAASSPVKTTSQAHSLPLSPASTRQQIDELRDSDSVCDSGVETSFRKLSFTESLTSGASLLTLNKMPHDYGQEGPLEGKI

In the experiment the parent is B1. As to conditions: with hif1n_human HIF1AN.
On to N678A, for which the “effect of a mutation on the interaction” value was “disrupting interaction strength”.
